B1: Pirin (Homo sapiens), O00625 (parent)
chain: MGSSKKVTLSVLSREQSEGVGARVRRSIGRPELKNLDPFLLFDEFKGGRPGGFPDHPHRGFETVSYLLEGGSMAHEDFCGHTGKMNPGDLQWMTAGRGILHAEMPCSEEPAHGLQLWVNLRSSEKMVEPQYQELKSEEIPKPSKDGVTVAVISGEALGIKSKVYTRTPTLYLDFKLDPGAKHSQPIPKGWTSFIYTISGDVYIGPDDAQQKIEPHHTAVLGEGDSVQVENKDPKRSHFVLIAGEPLREPVIQHGPFVMNTNEEISQAILDFRNAKNGFERAKTWKSKIGN
partner: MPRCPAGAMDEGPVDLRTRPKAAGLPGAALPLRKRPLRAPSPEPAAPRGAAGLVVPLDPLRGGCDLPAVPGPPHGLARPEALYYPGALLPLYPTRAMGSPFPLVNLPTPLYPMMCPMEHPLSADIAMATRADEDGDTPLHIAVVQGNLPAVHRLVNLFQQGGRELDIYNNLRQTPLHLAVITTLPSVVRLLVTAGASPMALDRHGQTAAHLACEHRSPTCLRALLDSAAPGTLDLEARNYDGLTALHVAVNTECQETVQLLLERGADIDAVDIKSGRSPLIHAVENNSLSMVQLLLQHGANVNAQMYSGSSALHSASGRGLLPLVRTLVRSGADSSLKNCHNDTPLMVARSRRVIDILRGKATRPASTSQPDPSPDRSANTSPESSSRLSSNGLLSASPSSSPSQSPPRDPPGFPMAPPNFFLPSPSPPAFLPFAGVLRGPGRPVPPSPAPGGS

Variants of: B1
Conditions: with bcl3_human BCL3, P20749

effect of a mutation on the interaction	Variant
disrupting interaction	MGSSKKVTLSVLSREQSEGVGARVRRSIGRPELKNLDPFLLFDEFKGGRPGGFPDHPHRGFETVSYLLEGGSMAHEDFCGHTGKMNPGDLQWMTAGRGILHAAMPCSEEPAHGLQLWVNLRSSEKMVEPQYQELKSEEIPKPSKDGVTVAVISGEALGIKSKVYTRTPTLYLDFKLDPGAKHSQPIPKGWTSFIYTISGDVYIGPDDAQQKIEPHHTAVLGEGDSVQVENKDPKRSHFVLIAGEPLREPVIQHGPFVMNTNEEISQAILDFRNAKNGFERAKTWKSKIGN [E103A]

Reference: IntAct's records for PubMed 25680527
